B1: unnamed (protein)
chain 1: QVQLVQSGAEVKKPGASVKVSCKASGYTFTSSYINWVRQAPGQGLEWMGTINPVSGSTSYAQKFQGRVTMTRDTSISTAYMELSRLRSDDTAVYYCARSWGYFDVWGQGTLVTVSS
chain 2: QSALTQPASVSGSPGQSITISCTGTSSDVGSYNYVNWYQQHPGKAPKLMIYGVSKRPSGVSNRFSGSKSGNTASLTISGLQAEDEADYYCGTFAGGSYYGVFGGGTKLTVL
B2: unnamed (protein)
chain 1: QVQLVQSGAEVKKPGASVKVSCKASGYRFTSSGINWVRQAPGQGLEWMGTINPVTGNTSYAQKFQGRVTMTRDTSISTAYMELSRLRSDDTAVYYCARGGYFDYWGQGTLVTVSS
chain 2: QSALTQPASVSGSPGQSITISCTGTSSDVGSYNYVNWYQQHPGKAPKLMIYGVSKRPSGVSNRFSGSKSGNTASLTISGLQAEDEADYYCGTFAGGSYYGVFGGGTKLTVL
B3: unnamed (protein)
chain 1: QVQLVQSGAEVKKPGASVKVSCKASGYTFTSSYINWVRQAPGQGLEWMGTINPVSGSTSYAQKFQGRVTMTRDTSISTAYMELSRLRSDDTAVYYCARGGYADYWGQGTLVTVSS
chain 2: QSALTQPASVSGSPGQSITISCTGTSSDVGSYNYVNWYQQHPGKAPKLMIYGVSKRPSGVSNRFSGSKSGNTASLTISGLQAEDEADYYCGTFAGGSYYGVFGGGTKLTVL
B4: unnamed (protein)
chain 1: QVQLVQSGAEVKKPGASVKVSCKASGYTFTSSYINWVRQAPGQGLEWMGTINPVSGSTSYAQKFQGRVTMTRDTSISTAYMELSRLRSDDTAVYYCARNGYADYWGQGTLVTVSS
chain 2: QSALTQPASVSGSPGQSITISCTGTSSDVGSYNYVNWYQQHPGKAPKLMIYGVSKRPSGVSNRFSGSKSGNTASLTISGLQAEDEADYYCGTFAGGSYYGVFGGGTKLTVL
B5: unnamed (protein)
chain 1: QVQLVQSGAEVKKPGASVKVSCKASGYTFTSSYINWVRQAPGQGLEWMGTINPVSGSTSYAQKFQGRVTMTRDTSISTAYMELSRLRSDDTAVYYCARSGYMDYWGQGTLVTVSS
chain 2: QSALTQPASVSGSPGQSITISCTGTSSDVGSYNYVNWYQQHPGKAPKLMIYGVSKRPSGVSNRFSGSKSGNTASLTISGLQAEDEADYYCGTFAGGSYYGVFGGGTKLTVL
B6: unnamed (protein)
chain 1: QVQLVQSGAEVKKPGASVKVSCKASGYTFTSSHINWVRQAPGQGLEWMGTINPVTGNTSYAQKFQGRVTMTRDTSISTAYMELSRLRSDDTAVYYCARGGYFDYWGQGTLVTVSS
chain 2: QSALTQPASVSGSPGQSITISCTGTSSDVGSYNYVNWYQQHPGKAPKLMIYGVSKRPSGVSNRFSGSKSGNTASLTISGLQAEDEADYYCGTFAGGSYYGVFGGGTKLTVL
B7: unnamed (protein)
chain 1: QVQLVQSGAEVKKPGASVKVSCKASGYTFTSSYINWVRQAPGQGLEWMGTINPVSGSTSYAQKFQGRVTMTRDTSISTAYMELSRLRSDDTAVYYCARQLTLDVWGQGTLVTVSS
chain 2: QSALTQPASVSGSPGQSITISCTGTSSDVGSYNYVNWYQQHPGKAPKLMIYGVSKRPSGVSNRFSGSKSGNTASLTISGLQAEDEADYYCGTFAGGSYYGVFGGGTKLTVL
B8: unnamed (protein)
chain 1: QVQLVQSGAEVKKPGASVKVSCKASGYTFTSSYINWVRQAPGQGLEWMGTINPVSGSTSYAQKFQGRVTMTRDTSISTAYMELSRLRSDDTAVYYCARGGEFDYWGQGTLVTVSS
chain 2: QSALTQPASVSGSPGQSITISCTGTSSDVGSYNYVNWYQQHPGKAPKLMIYGVSKRPSGVSNRFSGSKSGNTASLTISGLQAEDEADYYCGTFAGGSYYGVFGGGTKLTVL
B9: unnamed (protein)
chain 1: QVQLVQSGAEVKKPGASVKVSCKASGYTFTSTGINWVRQAPGQGLEWMGTINPVTGGTSYAQKFQGRVTMTRDTSISTAYMELSRLRSDDTAVYYCARGGYFDYWGQGTLVTVSS
chain 2: QSALTQPASVSGSPGQSITISCTGTSSDVGSYNYVNWYQQHPGKAPKLMIYGVSKRPSGVSNRFSGSKSGNTASLTISGLQAEDEADYYCGTFAGGSYYGVFGGGTKLTVL
B10: unnamed (protein)
chain 1: QVQLVQSGAEVKKPGASVKVSCKASGYTFTSSYINWVRQAPGQGLEWMGTINPVSGSTSYAQKFQGRVTMTRDTSISTAYMELSRLRSDDTAVYYCARGGYNDYWGQGTLVTVSS
chain 2: QSALTQPASVSGSPGQSITISCTGTSSDVGSYNYVNWYQQHPGKAPKLMIYGVSKRPSGVSNRFSGSKSGNTASLTISGLQAEDEADYYCGTFAGGSYYGVFGGGTKLTVL
B11: unnamed (protein)
chain 1: QVQLVQSGAEVKKPGASVKVSCKASGYTFTSSYINWVRQAPGQGLEWMGTINPVSGSTSYAQKFQGRVTMTRDTSISTAYMELSRLRSDDTAVYYCARGGYTDYWGQGTLVTVSS
chain 2: QSALTQPASVSGSPGQSITISCTGTSSDVGSYNYVNWYQQHPGKAPKLMIYGVSKRPSGVSNRFSGSKSGNTASLTISGLQAEDEADYYCGTFAGGSYYGVFGGGTKLTVL
B12: unnamed (protein)
chain 1: QVQLVQSGAEVKKPGASVKVSCKASGYTFTSSYINWVRQAPGQGLEWMGTINPVSGSTSYAQKFQGRVTMTRDTSISTAYMELSRLRSDDTAVYYCARGGYDDYWGQGTLVTVSS
chain 2: QSALTQPASVSGSPGQSITISCTGTSSDVGSYNYVNWYQQHPGKAPKLMIYGVSKRPSGVSNRFSGSKSGNTASLTISGLQAEDEADYYCGTFAGGSYYGVFGGGTKLTVL
B13: unnamed (protein)
chain 1: QVQLVQSGAEVKKPGASVKVSCKASGYTFTSSYINWVRQAPGQGLEWMGTINPVSGSTSYAQKFQGRVTMTRDTSISTAYMELSRLRSDDTAVYYCARSGYFDYWGQGTLVTVSS
chain 2: QSALTQPASVSGSPGQSITISCTGTSSDVGSYNYVNWYQQHPGKAPKLMIYGVSKRPSGVSNRFSGSKSGNTASLTISGLQAEDEADYYCGTFAGGSYYGVFGGGTKLTVL
B14: unnamed (protein)
chain 1: QVQLVQSGAEVKKPGASVKVSCKASGYTFTSSYINWVRQAPGQGLEWMGTINPVSGSTSYAQKFQGRVTMTRDTSISTAYMELSRLRSDDTAVYYCARSGYADYWGQGTLVTVSS
chain 2: QSALTQPASVSGSPGQSITISCTGTSSDVGSYNYVNWYQQHPGKAPKLMIYGVSKRPSGVSNRFSGSKSGNTASLTISGLQAEDEADYYCGTFAGGSYYGVFGGGTKLTVL
B15: unnamed (protein)
chain 1: QVQLVQSGAEVKKPGASVKVSCKASGYTFTSSYINWVRQAPGQGLEWMGTINPVSGSTSYAQKFQGRVTMTRDTSISTAYMELSRLRSDDTAVYYCARGGDFDYWGQGTLVTVSS
chain 2: QSALTQPASVSGSPGQSITISCTGTSSDVGSYNYVNWYQQHPGKAPKLMIYGVSKRPSGVSNRFSGSKSGNTASLTISGLQAEDEADYYCGTFAGGSYYGVFGGGTKLTVL
B16: unnamed (protein)
chain 1: QVQLVQSGAEVKKPGASVKVSCKASGYTFTSSYINWVRQAPGQGLEWMGTINPVSGSTSYAQKFQGRVTMTRDTSISTAYMELSRLRSDDTAVYYCARGGDMDYWGQGTLVTVSS
chain 2: QSALTQPASVSGSPGQSITISCTGTSSDVGSYNYVNWYQQHPGKAPKLMIYGVSKRPSGVSNRFSGSKSGNTASLTISGLQAEDEADYYCGTFAGGSYYGVFGGGTKLTVL
B17: unnamed (protein)
chain 1: QVQLVQSGAEVKKPGASVKVSCKASGYTFTSSYINWVRQAPGQGLEWMGTINPVSGSTSYAQKFQGRVTMTRDTSISTAYMELSRLRSDDTAVYYCARGGYVDYWGQGTLVTVSS
chain 2: QSALTQPASVSGSPGQSITISCTGTSSDVGSYNYVNWYQQHPGKAPKLMIYGVSKRPSGVSNRFSGSKSGNTASLTISGLQAEDEADYYCGTFAGGSYYGVFGGGTKLTVL
B18: unnamed (protein)
chain 1: QVQLVQSGAEVKKPGASVKVSCKASGYTFTSSYINWVRQAPGQGLEWMGTINPVSGSTSYAQKFQGRVTMTRDTSISTAYMELSRLRSDDTAVYYCARLAIGDSYWGQGTLVTVSS
chain 2: QSALTQPASVSGSPGQSITISCTGTSSDVGSYNYVNWYQQHPGKAPKLMIYGVSKRPSGVSNRFSGSKSGNTASLTISGLQAEDEADYYCGTFAGGSYYGVFGGGTKLTVL
B19: unnamed (protein)
chain 1: QVQLVQSGAEVKKPGASVKVSCKASGYTFTSSYINWVRQAPGQGLEWMGTINPVSGSTSYAQKFQGRVTMTRDTSISTAYMELSRLRSDDTAVYYCARGGYFDVWGQGTLVTVSS
chain 2: QSALTQPASVSGSPGQSITISCTGTSSDVGSYNYVNWYQQHPGKAPKLMIYGVSKRPSGVSNRFSGSKSGNTASLTISGLQAEDEADYYCGTFAGGSYYGVFGGGTKLTVL

As a reminder, the Kd is the constant that tells how readily two partners part at equilibrium. Higher therefore signals a looser complex.

For the test, the target named is ACVR2B, Q13705. Kind of test: Kd (SPR).
Chain of ACVR2B, Q13705 (Q13705 whole entry, looked up): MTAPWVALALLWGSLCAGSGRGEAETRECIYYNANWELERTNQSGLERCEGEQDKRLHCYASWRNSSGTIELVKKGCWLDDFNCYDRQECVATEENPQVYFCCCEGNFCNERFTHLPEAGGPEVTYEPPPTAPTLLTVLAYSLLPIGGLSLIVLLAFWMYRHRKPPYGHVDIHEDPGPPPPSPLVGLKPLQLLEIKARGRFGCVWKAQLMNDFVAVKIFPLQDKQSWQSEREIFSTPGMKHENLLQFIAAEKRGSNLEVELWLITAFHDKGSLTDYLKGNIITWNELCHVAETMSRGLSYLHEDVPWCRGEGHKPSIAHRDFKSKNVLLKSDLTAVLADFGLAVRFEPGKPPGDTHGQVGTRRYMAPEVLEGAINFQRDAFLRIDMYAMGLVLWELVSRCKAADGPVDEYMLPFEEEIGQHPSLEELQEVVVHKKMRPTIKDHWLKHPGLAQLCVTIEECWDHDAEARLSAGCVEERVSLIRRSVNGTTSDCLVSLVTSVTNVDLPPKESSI
Turning to B1, the Kd was 0.106 µM.

Regarding B2, the Kd was 0.292 µM.

B3 registered a Kd of 0.0767 µM.

B4 registered a dissociation constant Kd of 0.337 µM.

Molecule B5 showed a Kd of 0.00637 µM.

B6: the Kd worked out at 0.162 µM.

B7 came in with a Kd of 0.21 µM.

Molecule B8 showed a Kd of 0.704 µM.

In turn, B9 came in with a Kd of 0.234 µM. This Kd lies about 3-fold lower than the previous one.

B10 came in with a Kd of 0.101 µM.

The molecule B11 returned a Kd of 0.101 µM.

B12 yielded a dissociation constant (Kd) of 0.0426 µM.

Molecule B13 yielded a Kd of 0.00919 µM.

The molecule B14 had a Kd of 0.0419 µM. This Kd lies about 4.6-fold higher than the previous one.

B15 returned a Kd of 0.123 µM.

For B16, the Kd was determined as 0.162 µM. The Kd values of the last two molecules are within 1.5-fold of each other.

B17 came in with a Kd of 0.153 µM.

In turn, B18 gave a Kd of 0.111 µM.

As for B19, the dissociation constant (Kd) worked out at 0.0262 µM.

The values above are taken from the FLAb antibody collection (doi:10.1101/2023.12.08.570889).
